Source: US20050037404A1

Target: all of the coactivators tested
Test: cell-based or functional assay

B1: VP16 transactivation domain linked to the ligand binding domain of SXR (VP-L-SXR), P06492 413-490; O75469 107-434 (protein)
chain: APPTDVSLGDELHLDGEDVAMAHADALDDFDLDMLGDGDSPGPGFTPHDSAPYGALDMADFEFEQMFTDALGIDEYGGMKKEMIMSDEAVEERRALIKRKKSERTGTQPLGVQGLTEEQRMMIRELMDAQMKTFDTTFSHFKNFRLPGVLSSGCELPESLQAPSREEAAKWSQVRKDLCSLKVSLQLRGEDGSVWNYKPPADSGGKEIFSLLPHMADMSTYMFKGIISFAKVISYFRDLPIEDQISLLKGAAFELCQLRFNTVFNAETGTWECGRLSYCLEDTAGGFQQLLLEPMLKFHYMLKKLQLHEEEYVLMQAISLFSPDRPGVLQHRVVDQLQEQFAITLKSYIECNRPQPAHRFLFLKIMAMLTELRSINAQHTQRLLRIQDIHPFATPLMQELFGITGS
In the case of B1, the Gal4 reporter activity in mammalian two-hybrid assay, 10 µM docetaxel against 10 µM paclitaxel (% less than with paclitaxel) is reported as 25 to 40.
